The results in this text go back to the supplement of paper PMC10065799, “High-throughput profiling of sequence recognition by tyrosine kinases and SH2 domains using bacterial peptide display” (eLife, 2023).

One series addresses c-Src SH2. Nature of the series: SH2 binding enrichment of the phosphorylated peptide, bacterial display (enrichment ratio); higher = better substrate or ligand; peptides without Tyr show the background.
A further series deals with SHP2-C SH2. Described as above.
A further series concerns the target Grb2 SH2 (UniProt P62993). The series is described as above.
The target in the next series is FGFR1 (UniProt P11362). Nature of the series: phosphorylation enrichment, bacterial display (enrichment ratio); higher = better substrate or ligand; peptides without Tyr show the background.
For the next series, the target named is Jak2 (UniProt O60674). Described as above.
The target of another series is EPHB2 (UniProt P29323). Described as above.
For a further series, the system named is c-Abl (mouse). The series is described as above.
The target in the next series is MERTK (UniProt Q12866). The series is described as above.
A further series deals with FGFR3 (UniProt P22607). The description is as above.
The next series deals with AncSZ. The description is as above.
In another series the target is Hck (UniProt P08631). The series is described as above.
The next series concerns the target Fes (UniProt P07332). The series is described as above.
A further series concerns the target EPHB1 (UniProt P54762). The series is described as above.
The next series deals with Fyn (UniProt P06241). Described as above.
The subject of another series is c-Src. Described as above.
The test system of a further series is Fer (mouse). The description is as above.
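Wherever SH2 binding enrichment of the phosphorylated peptide, bacterial display is given: peptide library displayed on the E. coli surface as eCPX fusions, selected cells deep-sequenced, score is each peptide's frequency after selection divided by its frequency in the input.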
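Wherever phosphorylation enrichment, bacterial display is given: 11-residue human phosphosite peptides and single-mutation variants displayed on the E. coli surface, counted by deep sequencing, each peptide's frequency after selection divided by its frequency in the unselected input library; frequency after pTyr selection over input frequency; kinase dosed for 20-30% of maximal phosphorylation in three min.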

Hck, sequence (P08631 whole entry, looked up): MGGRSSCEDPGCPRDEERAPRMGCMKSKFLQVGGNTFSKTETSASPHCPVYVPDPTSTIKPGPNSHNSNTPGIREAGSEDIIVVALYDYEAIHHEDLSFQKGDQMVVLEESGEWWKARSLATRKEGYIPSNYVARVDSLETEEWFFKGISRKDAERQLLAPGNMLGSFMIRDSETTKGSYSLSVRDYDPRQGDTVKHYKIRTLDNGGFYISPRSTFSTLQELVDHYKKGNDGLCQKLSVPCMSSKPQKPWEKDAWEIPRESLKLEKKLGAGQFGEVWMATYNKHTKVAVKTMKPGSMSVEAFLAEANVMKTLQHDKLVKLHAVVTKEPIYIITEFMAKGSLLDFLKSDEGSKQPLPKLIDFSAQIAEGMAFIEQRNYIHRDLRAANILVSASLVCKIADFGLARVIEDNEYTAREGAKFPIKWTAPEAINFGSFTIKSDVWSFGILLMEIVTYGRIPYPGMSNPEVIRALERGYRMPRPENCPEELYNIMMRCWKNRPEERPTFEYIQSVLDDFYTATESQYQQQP
FGFR1, sequence (P11362 whole entry, looked up): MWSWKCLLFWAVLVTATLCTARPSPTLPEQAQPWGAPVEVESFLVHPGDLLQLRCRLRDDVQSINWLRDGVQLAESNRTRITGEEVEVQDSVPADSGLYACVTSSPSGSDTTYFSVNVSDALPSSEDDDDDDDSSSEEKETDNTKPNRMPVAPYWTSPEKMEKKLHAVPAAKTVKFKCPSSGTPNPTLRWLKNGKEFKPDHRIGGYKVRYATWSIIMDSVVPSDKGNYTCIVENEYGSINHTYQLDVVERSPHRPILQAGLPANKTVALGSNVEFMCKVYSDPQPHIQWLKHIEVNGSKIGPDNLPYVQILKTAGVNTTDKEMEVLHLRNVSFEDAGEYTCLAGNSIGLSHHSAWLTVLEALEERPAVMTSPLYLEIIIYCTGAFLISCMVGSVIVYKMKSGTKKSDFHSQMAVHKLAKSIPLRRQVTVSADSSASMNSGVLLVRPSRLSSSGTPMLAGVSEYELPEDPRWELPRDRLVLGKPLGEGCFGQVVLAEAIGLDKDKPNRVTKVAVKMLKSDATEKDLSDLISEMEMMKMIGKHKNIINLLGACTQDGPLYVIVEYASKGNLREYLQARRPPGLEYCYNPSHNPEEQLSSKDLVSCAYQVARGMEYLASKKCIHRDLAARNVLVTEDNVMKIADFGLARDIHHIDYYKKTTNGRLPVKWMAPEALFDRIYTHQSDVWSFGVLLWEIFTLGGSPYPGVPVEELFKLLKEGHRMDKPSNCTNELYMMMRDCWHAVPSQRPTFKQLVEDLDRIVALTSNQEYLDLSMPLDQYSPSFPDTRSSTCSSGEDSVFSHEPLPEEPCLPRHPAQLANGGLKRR
Grb2 SH2, sequence (P62993 whole entry, looked up): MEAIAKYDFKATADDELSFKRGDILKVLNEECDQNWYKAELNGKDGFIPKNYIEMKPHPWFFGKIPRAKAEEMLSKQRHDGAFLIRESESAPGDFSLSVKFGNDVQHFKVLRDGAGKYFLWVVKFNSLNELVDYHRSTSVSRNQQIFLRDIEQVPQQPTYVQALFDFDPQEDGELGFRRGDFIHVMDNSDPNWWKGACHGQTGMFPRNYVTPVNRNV
Fes, sequence (P07332 whole entry, looked up): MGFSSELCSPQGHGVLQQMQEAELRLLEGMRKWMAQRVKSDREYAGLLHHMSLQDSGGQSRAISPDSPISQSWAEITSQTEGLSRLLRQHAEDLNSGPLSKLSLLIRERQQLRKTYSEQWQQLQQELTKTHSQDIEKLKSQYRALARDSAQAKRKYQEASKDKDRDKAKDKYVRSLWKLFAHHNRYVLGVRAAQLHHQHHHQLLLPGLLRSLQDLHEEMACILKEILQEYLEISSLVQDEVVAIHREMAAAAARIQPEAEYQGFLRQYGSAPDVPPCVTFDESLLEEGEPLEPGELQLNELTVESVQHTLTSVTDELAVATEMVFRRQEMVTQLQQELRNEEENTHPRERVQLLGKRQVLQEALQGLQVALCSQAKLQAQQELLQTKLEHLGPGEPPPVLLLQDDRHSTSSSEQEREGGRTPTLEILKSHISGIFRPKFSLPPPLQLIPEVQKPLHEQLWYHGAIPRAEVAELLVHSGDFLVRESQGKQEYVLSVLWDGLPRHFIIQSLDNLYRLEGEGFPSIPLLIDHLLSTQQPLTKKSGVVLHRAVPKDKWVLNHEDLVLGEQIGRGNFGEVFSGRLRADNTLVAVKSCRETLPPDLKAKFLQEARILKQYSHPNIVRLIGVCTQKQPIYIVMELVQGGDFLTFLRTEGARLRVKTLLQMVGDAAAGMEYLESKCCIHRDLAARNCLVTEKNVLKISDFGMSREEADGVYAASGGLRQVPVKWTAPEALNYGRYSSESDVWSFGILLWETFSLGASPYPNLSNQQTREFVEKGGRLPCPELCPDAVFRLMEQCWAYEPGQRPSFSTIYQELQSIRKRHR
EPHB1, sequence (P54762 whole entry, looked up): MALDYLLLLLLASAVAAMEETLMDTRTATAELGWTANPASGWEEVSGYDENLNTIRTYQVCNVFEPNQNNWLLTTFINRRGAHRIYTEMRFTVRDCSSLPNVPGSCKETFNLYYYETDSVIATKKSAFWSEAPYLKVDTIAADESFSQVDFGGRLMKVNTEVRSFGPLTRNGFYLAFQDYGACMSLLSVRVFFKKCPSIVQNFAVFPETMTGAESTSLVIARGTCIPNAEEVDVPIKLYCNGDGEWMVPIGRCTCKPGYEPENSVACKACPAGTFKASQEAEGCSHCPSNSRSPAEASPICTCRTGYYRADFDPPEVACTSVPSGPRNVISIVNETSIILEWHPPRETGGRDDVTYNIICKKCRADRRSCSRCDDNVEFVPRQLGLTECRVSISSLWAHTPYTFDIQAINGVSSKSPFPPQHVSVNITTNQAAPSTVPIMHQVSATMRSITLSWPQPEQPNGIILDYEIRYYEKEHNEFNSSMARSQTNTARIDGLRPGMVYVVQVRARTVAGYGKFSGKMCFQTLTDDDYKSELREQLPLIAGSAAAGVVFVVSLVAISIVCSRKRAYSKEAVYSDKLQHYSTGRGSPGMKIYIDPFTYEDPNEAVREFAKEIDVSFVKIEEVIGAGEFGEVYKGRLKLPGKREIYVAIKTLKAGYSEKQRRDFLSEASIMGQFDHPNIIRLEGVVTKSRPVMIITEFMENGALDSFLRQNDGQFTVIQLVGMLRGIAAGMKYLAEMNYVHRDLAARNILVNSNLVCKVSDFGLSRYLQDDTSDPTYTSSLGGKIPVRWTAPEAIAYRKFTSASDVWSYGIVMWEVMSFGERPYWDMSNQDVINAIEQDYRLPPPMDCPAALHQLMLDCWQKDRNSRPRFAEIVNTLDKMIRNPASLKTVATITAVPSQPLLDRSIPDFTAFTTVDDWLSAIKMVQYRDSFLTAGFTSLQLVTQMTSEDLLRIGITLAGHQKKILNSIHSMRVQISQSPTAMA
MERTK, sequence (Q12866 whole entry, looked up): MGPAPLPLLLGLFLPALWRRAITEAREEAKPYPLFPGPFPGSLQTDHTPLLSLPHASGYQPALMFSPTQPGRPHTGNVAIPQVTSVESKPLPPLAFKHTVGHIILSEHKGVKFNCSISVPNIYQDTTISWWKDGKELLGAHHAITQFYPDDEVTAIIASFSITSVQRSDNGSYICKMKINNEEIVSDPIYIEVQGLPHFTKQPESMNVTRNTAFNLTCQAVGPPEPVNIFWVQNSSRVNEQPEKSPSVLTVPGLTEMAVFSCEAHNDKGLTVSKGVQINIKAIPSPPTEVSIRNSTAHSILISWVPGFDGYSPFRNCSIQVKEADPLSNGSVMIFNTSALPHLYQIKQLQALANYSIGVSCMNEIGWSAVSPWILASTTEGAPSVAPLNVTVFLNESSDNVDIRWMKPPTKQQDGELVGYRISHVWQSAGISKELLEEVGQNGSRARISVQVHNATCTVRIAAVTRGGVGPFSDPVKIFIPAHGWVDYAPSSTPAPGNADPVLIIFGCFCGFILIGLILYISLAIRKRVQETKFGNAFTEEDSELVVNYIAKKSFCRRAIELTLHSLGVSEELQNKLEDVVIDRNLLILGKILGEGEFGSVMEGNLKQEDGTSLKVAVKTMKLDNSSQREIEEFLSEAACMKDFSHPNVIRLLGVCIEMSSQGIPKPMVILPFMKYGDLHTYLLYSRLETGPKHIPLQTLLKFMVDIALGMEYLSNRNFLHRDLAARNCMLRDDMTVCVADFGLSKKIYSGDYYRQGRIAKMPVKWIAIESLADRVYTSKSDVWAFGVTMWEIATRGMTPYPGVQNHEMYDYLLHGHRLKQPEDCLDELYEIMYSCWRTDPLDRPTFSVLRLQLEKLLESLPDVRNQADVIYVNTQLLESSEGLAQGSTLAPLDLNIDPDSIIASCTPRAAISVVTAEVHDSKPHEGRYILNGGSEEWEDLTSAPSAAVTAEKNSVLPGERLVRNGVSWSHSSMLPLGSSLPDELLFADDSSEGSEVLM
Fyn, sequence (P06241 whole entry, looked up): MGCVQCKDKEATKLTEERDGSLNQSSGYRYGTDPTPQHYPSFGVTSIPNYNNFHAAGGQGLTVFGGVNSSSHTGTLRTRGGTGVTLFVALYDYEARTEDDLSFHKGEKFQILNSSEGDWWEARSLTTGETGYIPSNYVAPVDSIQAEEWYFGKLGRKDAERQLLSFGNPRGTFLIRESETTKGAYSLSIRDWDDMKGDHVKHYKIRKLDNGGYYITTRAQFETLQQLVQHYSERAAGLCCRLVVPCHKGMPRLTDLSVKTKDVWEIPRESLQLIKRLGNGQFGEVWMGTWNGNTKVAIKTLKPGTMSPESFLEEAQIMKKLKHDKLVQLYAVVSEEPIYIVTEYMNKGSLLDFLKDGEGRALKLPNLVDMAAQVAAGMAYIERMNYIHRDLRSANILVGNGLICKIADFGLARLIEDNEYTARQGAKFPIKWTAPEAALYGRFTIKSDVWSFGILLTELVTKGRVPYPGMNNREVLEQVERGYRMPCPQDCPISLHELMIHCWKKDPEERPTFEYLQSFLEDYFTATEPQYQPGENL

Regarding ARAHKYHGGGG [HBB_Y146_L142R], the SH2 binding enrichment with c-Src SH2 is 0.902; with SHP2-C SH2, 0.799; in the series with Grb2 SH2, 1.39. Besides, the phosphorylation enrichment with FGFR1 came out at 0.324; in the series with Jak2 it was 0.379; with EPHB2, 0.273; with c-Abl (mouse) it was 0.474; in the series with MERTK it was 0.276; in the series with FGFR3, 0.371. Besides, the phosphorylation enrichment in the series on AncSZ amounted to 0.384; with Hck, 0.302; with Fes, 0.443; with EPHB1, 0.246; in the series with Fyn, 0.312; in the series with c-Src it was 0.312. Further, the phosphorylation enrichment in the series on Fer (mouse) is 0.28.
In the case of ARLEYYENEKK [IRS1_Y47], the SH2 binding enrichment with c-Src SH2 was determined as 9.04; in the series with SHP2-C SH2, 0.888; with Grb2 SH2, 1.34. The phosphorylation enrichment with FGFR1 was found to be 0.592; in the series with Jak2 it was 0.849; in the series with EPHB2, 0.506; in the series with c-Abl (mouse), 0.808; with MERTK it was 0.571; with FGFR3, 0.733. In addition, the phosphorylation enrichment in the series on AncSZ is 1.08; with Hck, 0.482; with Fes, 1.01; with EPHB1, 0.686; in the series with Fyn, 0.595; with c-Src, 0.528. For the same sequence, in the series with Fer (mouse), the phosphorylation enrichment turned out to be 0.491.
Consider ASFPLYEPAKM [MKI67_Y340], for which the SH2 binding enrichment with c-Src SH2 was 0.535; with SHP2-C SH2, 0.707; in the series with Grb2 SH2, 0.889. The phosphorylation enrichment with FGFR1 turned out to be 0.426; in the series with Jak2 it was 0.484; with EPHB2, 21.1; in the series on c-Abl (mouse) it was 0.635; in the series with MERTK it was 3.18; with FGFR3, 0.493. The phosphorylation enrichment in the series on AncSZ was determined as 0.789; with Hck, 8.34; with Fes, 1.52; with EPHB1, 18.1; with Fyn it was 4.36; in the series on c-Src, 2.97. Besides, in the series with Fer (mouse), the phosphorylation enrichment came out at 16.3.
ASGKFYAMKIL [AKT3_Y174_YF]: the SH2 binding enrichment with c-Src SH2 came out at 0.763; with SHP2-C SH2 it was 1.05; with Grb2 SH2 it was 1. In addition, the phosphorylation enrichment with FGFR1 came to 0.609; with Jak2, 0.801; with EPHB2, 0.625; in the series with c-Abl (mouse) it was 0.675; in the series with MERTK it was 0.509; with FGFR3 it was 0.589. The phosphorylation enrichment worked out at 0.858 in the series with AncSZ; 0.53 in the series with Hck; 1.07 with Fes; 0.519 with EPHB1; 0.529 in the series with Fyn; 0.426 with c-Src. Also, the phosphorylation enrichment with Fer (mouse) was determined as 0.543.
In the case of ASMAKYFASEI [ACADSB_Y372_YF], the values for the SH2 binding enrichment with c-Src SH2, with SHP2-C SH2 and with Grb2 SH2 were 0.497, 0.677 and 0.75, respectively. For the same sequence, the phosphorylation enrichment in the series with FGFR1 amounted to 0.709; in the series with Jak2, 0.817; with EPHB2, 0.436; in the series with c-Abl (mouse) it was 0.474; with MERTK it was 0.416; with FGFR3, 0.781. Also, the phosphorylation enrichment in the series on AncSZ came to 0.721; with Hck it was 0.384; in the series with Fes, 0.842; in the series with EPHB1, 0.484; in the series with Fyn it was 0.504; in the series on c-Src, 0.35. Further, the phosphorylation enrichment with Fer (mouse) amounted to 0.449.
As for ATDLAYFLVCK [ASL_Y375_R379C_YF], the values for the SH2 binding enrichment with c-Src SH2, with SHP2-C SH2 and with Grb2 SH2 were 0.425, 0.748 and 0.776, respectively. Moreover, the phosphorylation enrichment with FGFR1 came to 1.16; with Jak2, 2.42; with EPHB2, 0.617; in the series on c-Abl (mouse), 1.1; with MERTK it was 0.517; in the series with FGFR3 it was 1.26. In addition, the phosphorylation enrichment with AncSZ was 1.6; in the series with Hck it was 0.674; with Fes, 1.61; in the series with EPHB1, 0.789; in the series with Fyn, 0.564; in the series with c-Src, 0.655. Besides, the phosphorylation enrichment in the series on Fer (mouse) is 0.698.
As for ATDLAYFLVRE [ASL_Y375_K380E_YF], the SH2 binding enrichment in the series with c-Src SH2 was 1.26; with SHP2-C SH2 it was 1.67; with Grb2 SH2 it was 0.827. Further, the phosphorylation enrichment stood at 4.9 with FGFR1; 2.29 with Jak2; 0.953 in the series with EPHB2; 0.939 with c-Abl (mouse); 0.694 with MERTK; 3.95 with FGFR3. Also, the phosphorylation enrichment in the series with AncSZ turned out to be 1.54; in the series with Hck, 0.782; with Fes it was 1.51; with EPHB1 it was 1.02; in the series with Fyn, 0.809; in the series with c-Src, 0.783. Besides, the phosphorylation enrichment with Fer (mouse) came to 0.797.
As for ATPKGYELDAS [OTC_Y223_P225L], the SH2 binding enrichment with c-Src SH2 was 0.627; in the series with SHP2-C SH2, 0.665; with Grb2 SH2 it was 0.878. In addition, the phosphorylation enrichment with FGFR1 came to 0.466; with Jak2, 1; with EPHB2 it was 0.551; with c-Abl (mouse), 0.697; in the series with MERTK it was 0.491; in the series with FGFR3, 0.557. Also, the phosphorylation enrichment with AncSZ was determined as 0.966; in the series with Hck it was 0.442; in the series with Fes, 0.903; with EPHB1, 0.442; with Fyn, 0.478; with c-Src it was 0.405. Moreover, the phosphorylation enrichment in the series with Fer (mouse) was found to be 0.465.
